Experimental data taken from patent US20080181887A1 (published 2008).

T1: murine FcRn (murine, UniProt P01887 21-119, limits assumed)
T1 construct: the whole entry is named; also called mouse FcRn; muFcRn
T1 sequence: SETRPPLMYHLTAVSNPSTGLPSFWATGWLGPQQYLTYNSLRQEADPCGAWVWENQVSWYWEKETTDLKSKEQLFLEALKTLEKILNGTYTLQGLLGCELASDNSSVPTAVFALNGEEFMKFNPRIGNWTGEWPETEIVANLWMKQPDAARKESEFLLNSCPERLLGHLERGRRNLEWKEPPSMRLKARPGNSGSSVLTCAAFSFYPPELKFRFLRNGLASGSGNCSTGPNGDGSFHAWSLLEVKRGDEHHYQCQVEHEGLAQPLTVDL
T1 sequence (b2m): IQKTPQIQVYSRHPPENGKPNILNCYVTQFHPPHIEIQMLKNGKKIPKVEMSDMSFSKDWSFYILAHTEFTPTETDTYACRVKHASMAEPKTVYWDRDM


Legend:
human FcRn [1] = target: T2, human FcRn (human); experiment: BIAcore SPR, equilibrium binding with Scatchard analysis, soluble human FcRn over immobilized IgG1, pH 6.0
T2 construct: mature; Soluble heterodimer from baculovirus-infected High-Five cells, purified on IgG Sepharose; also called recombinant human FcRn; the human receptor
T2 sequence (chain, as listed by the source limits assumed, chain 1 of 2): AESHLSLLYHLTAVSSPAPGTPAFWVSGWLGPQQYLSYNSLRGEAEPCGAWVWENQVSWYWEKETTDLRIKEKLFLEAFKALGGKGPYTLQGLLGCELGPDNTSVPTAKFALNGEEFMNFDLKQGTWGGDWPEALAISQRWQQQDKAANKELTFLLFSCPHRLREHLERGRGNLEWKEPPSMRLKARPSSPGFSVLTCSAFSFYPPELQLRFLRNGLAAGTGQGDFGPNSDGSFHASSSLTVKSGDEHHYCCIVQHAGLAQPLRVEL
T2 sequence (P61769 21-119 limits assumed, chain 2 of 2): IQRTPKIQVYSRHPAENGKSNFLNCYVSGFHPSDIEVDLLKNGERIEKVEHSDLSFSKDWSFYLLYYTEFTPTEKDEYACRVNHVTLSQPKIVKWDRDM
Description: (§1) The interaction of soluble murine and human FcRn with immobilized human IgG1 variants was monitored by surface plasmon resonance detection using a BIAcore 3000 instrument (Pharmacia Biosensor, Uppsala, Sweden). […] Protein concentrations were calculated by the bicinchoninic acid (BCA) method for both human and murine FcRn or using the 1% extinction coefficient at 280 m of 1.5 for IgG1 wild type and variants. The latter were coupled to the dextran matrix of a CM5 sensor chip (Pharmacia Biosensor) using an Amine Coupling Kit as described (Johnson et al., supra). The protein concentrations ranged from 3-5 μg/ml in 10 mM sodium acetate, pH 5.0. The activation period was set for 7 minutes at a flow rate of 10 μl/min and the immobilization period was set to between 10 and 20 minutes at a flow rate of 10 μl/min. Excess reactive esters were quenched by injection of 70 μl of 1.0 methanolamine hydrochloride, pH 8.5. […] Human and murine FcRn were buffer exchanged against 50 mM PBS buffer pH 6.0 containing 0.05% Tween 20. Dilutions were made in the same buffer. All binding experiments were performed at 25 C. with concentrations ranging from 120 to 1 μg/ml at a flow rate of 5 to 10 μl/min; data were collected for 25 to 50 minutes and three 1-minute pulses of PBS buffer pH 7.2 were used to regenerate the surfaces. FcRn was also flowed over an uncoated cell and the sensorgrams from these blank runs subtracted from those obtained with IgG1-coupled chips. Runs were analyzed using the software BIAevaluation 3.1 (Pharmacia). Association constants (KAS) were determined from Scatchard analysis by measuring the concentration of free reactants and complex at equilibrium after correction for nonspecific binding.

murine FcRn [2] = target: T1, murine FcRn; experiment: BIAcore SPR, equilibrium binding with Scatchard analysis, soluble murine FcRn over immobilized IgG1, pH 6.0
Description: as §1

murine FcRn [3] = target: T1, murine FcRn; experiment: BIAcore SPR, Scatchard analysis of FIG. 7A, murine FcRn 1 nM to 556 nM over 4000 RU of immobilized IgG1
Description: Runs were analyzed using the software BIAevaluation 3.1 (Pharmacia). Association constants (KAS) were determined from Scatchard analysis by measuring the concentration of free reactants and complex at equilibrium after correction for nonspecific binding. […] The concentration of free analyte (human or murine FcRn) is equal to the bulk analyte concentration since analyte is constantly replenished during sample injection. The concentration of free ligand on the surface of the sensor chip can be derived from the concentration of the complex and from the total binding capacity of the surface as KA=Req/C(Rmax-Req) where C is the free analyte concentration, Req is the steady-state response, and Rmax is the total surface binding capacity. Rearranging, the equation reads: Req/C=KA Rmax-KA Req.
In all cases, equilibrium (or near-equilibrium) binding levels were reached within 50 minutes. To estimate the increase in RU resulting from the non specific effect of protein on the bulk refractive index, binding of FcRn to an uncoated cell was measured and the sensorgrams from these blank runs subtracted from those obtained with IgG1-coupled chips.

murine FcRn [4] = target: T1, murine FcRn; experiment: BIAcore SPR, soluble murine FcRn over immobilized IgG1, pH 6.0
Description: (§2) The interaction of soluble murine and human FcRn with immobilized human IgG1 variants was monitored by surface plasmon resonance detection using a BIAcore 3000 instrument (Pharmacia Biosensor, Uppsala, Sweden). […] Protein concentrations were calculated by the bicinchoninic acid (BCA) method for both human and murine FcRn or using the 1% extinction coefficient at 280 m of 1.5 for IgG1 wild type and variants. The latter were coupled to the dextran matrix of a CM5 sensor chip (Pharmacia Biosensor) using an Amine Coupling Kit as described (Johnson et al., supra). The protein concentrations ranged from 3-5 μg/ml in 10 mM sodium acetate, pH 5.0. The activation period was set for 7 minutes at a flow rate of 10 μl/min and the immobilization period was set to between 10 and 20 minutes at a flow rate of 10 μl/min. Excess reactive esters were quenched by injection of 70 μl of 1.0 methanolamine hydrochloride, pH 8.5. […] Human and murine FcRn were buffer exchanged against 50 mM PBS buffer pH 6.0 containing 0.05% Tween 20. Dilutions were made in the same buffer. […] Runs were analyzed using the software BIAevaluation 3.1 (Pharmacia). Association constants (KAS) were determined from Scatchard analysis by measuring the concentration of free reactants and complex at equilibrium after correction for nonspecific binding.

human FcRn [5] = target: T2, human FcRn; experiment: BIAcore SPR, soluble human FcRn over immobilized IgG1, pH 6.0
Description: as §2

| Binder | ΔΔG (ΔG wild type - ΔG mutant) (human FcRn [1]) | Kd (murine FcRn [2]) | ΔΔG (ΔG wild type - ΔG mutant) (murine FcRn [2]) | Kd (murine FcRn [3]) | binding result (murine FcRn [4]) | binding result (human FcRn [5]) |
| --- | --- | --- | --- | --- | --- | --- |
| human IgG1 MEDI-493 (SYNAGIS) G385R/Q386T/P387R/N389P (antibody, HEK 293, protein A purified; not shown: human IgG1 heavy chain CH1 domain (between VH and hinge-Fc); human kappa light chain constant domain) heavy (part 1 of 2): QVTLRESGPALVKPTQTLTLTCTFSGFSLSTSGMSVGWIRQPPGKALEWLADIWWDDKKDYNPSLKSRLTISKDTSKNQVVLKVTNMDPADTATYYCARSMITNWYFDVWGAGTTVTVSS heavy (part 2 of 2): EPKSCDKTHTCPPCPAPELLGGPSVFLFPPKPKDTLMISRTPEVTCVVVDVSHEDPEVKFNWYVDGVEVHNAKTKPREEQYNSTYRVVSVLTVLHQDWLNGKEYKCKVSNKALPAPIEKTISKAKGQPREPQVYTLPPSREEMTKNQVSLTCLVKGFYPSDIAVEWESNRTREPNYKTTPPVLDSDGSFFLYSKLTVDKSRWQQGNVFSCSVMHEALHNHYTQKSLSLSPGK light: DIQMTQSPSTLSASVGDRVTITCKCQLSVGYMHWYQQKPGKAPKLLIYDTSKLASGVPSRFSGSGSGTEFTLTISSLQPDDFATYYCFQGSGYPFTFGGGTKLEIK | 0.3 kcal/mol |  |  |  |  |  |
| human IgG1 MEDI-493 (SYNAGIS) M252Y/S254T/T256E (antibody, HEK 293, protein A purified; also called IgG1/M252Y/S254T/T256E; not shown: human IgG1 heavy chain CH1 domain (between VH and hinge-Fc); human kappa light chain constant domain) heavy (part 1 of 2): QVTLRESGPALVKPTQTLTLTCTFSGFSLSTSGMSVGWIRQPPGKALEWLADIWWDDKKDYNPSLKSRLTISKDTSKNQVVLKVTNMDPADTATYYCARSMITNWYFDVWGAGTTVTVSS heavy (part 2 of 2): EPKSCDKTHTCPPCPAPELLGGPSVFLFPPKPKDTLYITREPEVTCVVVDVSHEDPEVKFNWYVDGVEVHNAKTKPREEQYNSTYRVVSVLTVLHQDWLNGKEYKCKVSNKALPAPIEKTISKAKGQPREPQVYTLPPSREEMTKNQVSLTCLVKGFYPSDIAVEWESNGQPENNYKTTPPVLDSDGSFFLYSKLTVDKSRWQQGNVFSCSVMHEALHNHYTQKSLSLSPGK light: DIQMTQSPSTLSASVGDRVTITCKCQLSVGYMHWYQQKPGKAPKLLIYDTSKLASGVPSRFSGSGSGTEFTLTISSLQPDDFATYYCFQGSGYPFTFGGGTKLEIK | 1.4 kcal/mol | 27 nM | 1.4 kcal/mol | 24 nM |  |  |
| human IgG1 MEDI-493 (SYNAGIS) M252W (antibody, HEK 293, protein A purified; not shown: human IgG1 heavy chain CH1 domain (between VH and hinge-Fc); human kappa light chain constant domain) heavy (part 1 of 2): QVTLRESGPALVKPTQTLTLTCTFSGFSLSTSGMSVGWIRQPPGKALEWLADIWWDDKKDYNPSLKSRLTISKDTSKNQVVLKVTNMDPADTATYYCARSMITNWYFDVWGAGTTVTVSS heavy (part 2 of 2): not shown light: DIQMTQSPSTLSASVGDRVTITCKCQLSVGYMHWYQQKPGKAPKLLIYDTSKLASGVPSRFSGSGSGTEFTLTISSLQPDDFATYYCFQGSGYPFTFGGGTKLEIK | 1.1 kcal/mol | 30 nM | 1.3 kcal/mol |  |  |  |
| human IgG1 MEDI-493 (SYNAGIS) M252Y/T256Q (antibody, HEK 293, protein A purified; not shown: human IgG1 heavy chain CH1 domain (between VH and hinge-Fc); human kappa light chain constant domain) heavy (part 1 of 2): QVTLRESGPALVKPTQTLTLTCTFSGFSLSTSGMSVGWIRQPPGKALEWLADIWWDDKKDYNPSLKSRLTISKDTSKNQVVLKVTNMDPADTATYYCARSMITNWYFDVWGAGTTVTVSS heavy (part 2 of 2): not shown light: DIQMTQSPSTLSASVGDRVTITCKCQLSVGYMHWYQQKPGKAPKLLIYDTSKLASGVPSRFSGSGSGTEFTLTISSLQPDDFATYYCFQGSGYPFTFGGGTKLEIK | 0.9 kcal/mol |  |  |  |  |  |
| human IgG1 MEDI-493 (SYNAGIS) N434F/Y436H (antibody, HEK 293, protein A purified; not shown: human IgG1 heavy chain CH1 domain (between VH and hinge-Fc); human kappa light chain constant domain) heavy (part 1 of 2): QVTLRESGPALVKPTQTLTLTCTFSGFSLSTSGMSVGWIRQPPGKALEWLADIWWDDKKDYNPSLKSRLTISKDTSKNQVVLKVTNMDPADTATYYCARSMITNWYFDVWGAGTTVTVSS heavy (part 2 of 2): not shown light: DIQMTQSPSTLSASVGDRVTITCKCQLSVGYMHWYQQKPGKAPKLLIYDTSKLASGVPSRFSGSGSGTEFTLTISSLQPDDFATYYCFQGSGYPFTFGGGTKLEIK | 1 kcal/mol | 9 nM | 2 kcal/mol |  |  |  |
| human IgG1 MEDI-493 (SYNAGIS) I253A (antibody, HEK 293, protein A purified; also called 1253A; not shown: human IgG1 heavy chain CH1 domain (between VH and hinge-Fc); human kappa light chain constant domain) heavy (part 1 of 2): QVTLRESGPALVKPTQTLTLTCTFSGFSLSTSGMSVGWIRQPPGKALEWLADIWWDDKKDYNPSLKSRLTISKDTSKNQVVLKVTNMDPADTATYYCARSMITNWYFDVWGAGTTVTVSS heavy (part 2 of 2): not shown light: DIQMTQSPSTLSASVGDRVTITCKCQLSVGYMHWYQQKPGKAPKLLIYDTSKLASGVPSRFSGSGSGTEFTLTISSLQPDDFATYYCFQGSGYPFTFGGGTKLEIK |  |  |  |  | no binding (tested: FcRn 1 to 120 µg/ml) | no binding (tested: FcRn 1 to 120 µg/ml) |
| human IgG1 MEDI-493 (SYNAGIS) H433K/N434F/Y436H (antibody, HEK 293, protein A purified; not shown: human IgG1 heavy chain CH1 domain (between VH and hinge-Fc); human kappa light chain constant domain) heavy (part 1 of 2): QVTLRESGPALVKPTQTLTLTCTFSGFSLSTSGMSVGWIRQPPGKALEWLADIWWDDKKDYNPSLKSRLTISKDTSKNQVVLKVTNMDPADTATYYCARSMITNWYFDVWGAGTTVTVSS heavy (part 2 of 2): EPKSCDKTHTCPPCPAPELLGGPSVFLFPPKPKDTLMISRTPEVTCVVVDVSHEDPEVKFNWYVDGVEVHNAKTKPREEQYNSTYRVVSVLTVLHQDWLNGKEYKCKVSNKALPAPIEKTISKAKGQPREPQVYTLPPSREEMTKNQVSLTCLVKGFYPSDIAVEWESNGQPENNYKTTPPVLDSDGSFFLYSKLTVDKSRWQQGNVFSCSVMHEALKFHHTQKSLSLSPGK light: DIQMTQSPSTLSASVGDRVTITCKCQLSVGYMHWYQQKPGKAPKLLIYDTSKLASGVPSRFSGSGSGTEFTLTISSLQPDDFATYYCFQGSGYPFTFGGGTKLEIK | 1.1 kcal/mol | 14 nM | 1.8 kcal/mol |  |  |  |
